{"source": "patent US20230212306A1", "about": "(Daiichi Sankyo, published 2023)", "key": {"[1]": {"target": "T1, rat TLR7-Flag, expressed in HEK293 cells (rat, UniProt P58681 27-1050 (mouse entry))", "T1 construct": "not shown: Flag tag", "T1 chain": "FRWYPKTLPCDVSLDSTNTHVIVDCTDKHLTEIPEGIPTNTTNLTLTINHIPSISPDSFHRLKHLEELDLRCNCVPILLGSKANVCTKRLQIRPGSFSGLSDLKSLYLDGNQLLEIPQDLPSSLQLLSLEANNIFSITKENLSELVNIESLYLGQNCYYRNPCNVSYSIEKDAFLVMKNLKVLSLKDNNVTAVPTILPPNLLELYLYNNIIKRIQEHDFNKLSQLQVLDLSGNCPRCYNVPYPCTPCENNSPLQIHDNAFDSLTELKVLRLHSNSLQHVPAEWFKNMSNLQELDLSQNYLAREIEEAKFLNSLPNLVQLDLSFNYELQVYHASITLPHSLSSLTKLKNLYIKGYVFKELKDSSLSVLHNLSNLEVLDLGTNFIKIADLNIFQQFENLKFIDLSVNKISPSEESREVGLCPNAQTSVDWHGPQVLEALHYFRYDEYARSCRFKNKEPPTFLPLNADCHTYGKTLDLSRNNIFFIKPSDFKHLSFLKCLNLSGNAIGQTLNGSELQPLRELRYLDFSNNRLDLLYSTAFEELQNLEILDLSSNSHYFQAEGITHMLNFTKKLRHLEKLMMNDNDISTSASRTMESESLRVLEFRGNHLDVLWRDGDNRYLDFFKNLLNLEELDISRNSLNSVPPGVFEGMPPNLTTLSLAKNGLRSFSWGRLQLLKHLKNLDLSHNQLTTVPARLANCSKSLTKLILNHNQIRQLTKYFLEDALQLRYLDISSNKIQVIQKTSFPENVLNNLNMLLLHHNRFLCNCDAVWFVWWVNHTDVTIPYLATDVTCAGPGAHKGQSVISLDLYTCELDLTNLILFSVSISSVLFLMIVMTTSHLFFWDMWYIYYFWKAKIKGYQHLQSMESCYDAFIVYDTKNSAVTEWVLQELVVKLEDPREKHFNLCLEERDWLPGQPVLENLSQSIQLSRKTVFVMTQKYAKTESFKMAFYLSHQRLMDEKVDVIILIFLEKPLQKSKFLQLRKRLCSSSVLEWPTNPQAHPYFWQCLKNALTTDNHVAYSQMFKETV", "test": "flow cytometry on fixed and permeabilised HEK293 cells expressing rat TLR7-Flag", "description": "(§1) The HEK293 cells expressing human TLR7 (variant 1)-Flag prepared in 8)-1, the HEK293 cells expressing human TLR7 (variant 2)-Flag prepared in 8)-2, the HEK293 cells expressing monkey TLR7-Flag prepared in 8)-3, the HEK293 cells expressing mouse TLR7-Flag prepared in 8)-4, and the HEK293 cells expressing rat TLR7-Flag prepared in 8)-5 were immobilized/subjected to membrane permeation with a Fixation and Permeabilization Solution (Becton, Dickinson and Company) and thereafter stained using huAT01_H3L2_IgG1LALA, which is one of the humanized anti-human TLR7 antibodies, and ALEXA FLUOR® 647 AffiniPure Goat anti-human IgG+IgM (H+L) (Jackson ImmunoResearch Inc.), which is the secondary antibody.\n(§2) The binding of the humanized anti-human TLR7 antibody to human TLR7 was detected based on flow cytometry (Miltenyi Biotec K.K.), and the data was analyzed using software (Flowjo) which analyzes the data of flow cytometry."}, "[2]": {"target": "T2, human TLR7 (variant 1)-Flag, expressed in HEK293 cells (human, UniProt Q9NYK1 27-1049)", "T2 construct": "Transient expression from pcDNA3.1 in Lenti-X HEK293T cells; cells fixed and permeabilised before staining; not shown: Flag tag", "T2 sequence": "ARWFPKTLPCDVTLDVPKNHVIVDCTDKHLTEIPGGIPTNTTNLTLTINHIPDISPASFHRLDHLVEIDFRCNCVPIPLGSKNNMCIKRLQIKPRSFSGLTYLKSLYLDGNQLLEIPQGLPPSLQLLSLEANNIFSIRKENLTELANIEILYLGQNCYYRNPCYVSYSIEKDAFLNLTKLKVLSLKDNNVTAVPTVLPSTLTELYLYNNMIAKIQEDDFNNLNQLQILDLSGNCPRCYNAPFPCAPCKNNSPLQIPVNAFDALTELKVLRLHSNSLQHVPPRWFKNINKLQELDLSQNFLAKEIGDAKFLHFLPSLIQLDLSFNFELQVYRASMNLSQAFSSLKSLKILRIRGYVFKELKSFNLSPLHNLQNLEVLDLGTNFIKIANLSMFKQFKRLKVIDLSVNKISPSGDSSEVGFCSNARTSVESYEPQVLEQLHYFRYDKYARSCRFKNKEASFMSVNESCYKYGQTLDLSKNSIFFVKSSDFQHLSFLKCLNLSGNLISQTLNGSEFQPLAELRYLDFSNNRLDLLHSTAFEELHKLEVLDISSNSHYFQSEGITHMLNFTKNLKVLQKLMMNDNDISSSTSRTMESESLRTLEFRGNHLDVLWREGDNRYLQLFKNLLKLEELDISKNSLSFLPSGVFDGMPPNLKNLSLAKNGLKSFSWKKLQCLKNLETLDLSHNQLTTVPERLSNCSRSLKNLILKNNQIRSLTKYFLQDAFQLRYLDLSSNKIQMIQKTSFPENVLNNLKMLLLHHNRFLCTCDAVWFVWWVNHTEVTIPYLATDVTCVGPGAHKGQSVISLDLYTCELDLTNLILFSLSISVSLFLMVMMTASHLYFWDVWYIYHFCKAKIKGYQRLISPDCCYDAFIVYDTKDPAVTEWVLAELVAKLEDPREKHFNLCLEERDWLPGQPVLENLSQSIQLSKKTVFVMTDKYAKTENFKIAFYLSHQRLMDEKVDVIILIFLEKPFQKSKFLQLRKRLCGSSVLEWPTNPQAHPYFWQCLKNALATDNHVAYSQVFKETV", "test": "flow cytometry on fixed and permeabilised HEK293 cells expressing human TLR7 (variant 1)-Flag", "description": "as §1, §2"}}}
{"binder": "huAT01_H3L2_IgG1LALA antibody (antibody, V domains shown, Humanized AT01; heavy huAT01_H3_IgG1LALA, light huAT01_L2) VH: QVQLVQSGAEVKKPGASVKVSCKASGYTFTNNWLHWVRQAPGQGLEWMGDIYPSNGRTNYAQKFQGRVTLTVDKSTSTAYMELSSLRSEDTAVYFCARERGYFDYWGQGTLVTVSS VL: DIQMTQSPSSLSASVGDRVTITCKASQDINKYIAWYQQKPGKAPKLLIHYTSTLQPGIPSRFSGSGSGRDYTLTISSLQPEDFATYYCLQYDYLLTFGQGTKVEIKR", "values": [{"measurement": "binding result", "setting": "[1]", "result": "no binding"}, {"measurement": "binding result", "setting": "[2]", "result": "binds"}]}
